Assay results published in US20160326230A1, “HUMAN RELAXIN ANALOGUE, PHARMACEUTICAL COMPOSITION OF SAME, AND PHARMACEUTICAL APPLICATION OF SAME” (SHANGHAI HENGRUI PHARMACEUTICAL CO., LTD., priority 2013, published 2016).

Tests used:
[1] = In vivo half-life measurement in rats (Human relaxin-2 ELISA of blood samples); parameters: species or system Sprague Dawley (SD) rats; conditions: SD rats, caudal vein injection, 0.5 mg/kg/rat
Experimental: A total of 12 experimental Sprague Dawley (SD) rats (6 male and 6 female) were used in this test (purchased from SINO-BRITSH SIPPR/BK LAB. ANIMAL LTD., CO, Certificate No.: SCXK (Shanghai) 2008-0016, 160-180 g), and the maintenance environment was SPF grade. SD rats were kept for 3 days in the laboratory environment, at a temperature of 20-25° C., with a humidity of 40-60%. The wild-type human relaxin analog 800828 (WT, prepared in Example 29) with the original sequence was used as a positive control in this test.
Rats were randomly divided into 3 groups, with 4 rats in each group, half males and half females. Control (saline) and human relaxin (analog 800814, WT 800828) were injected into the caudal vein of the rats (4 rats/sample) with a dose of 0.5 mg/kg/rat. Blood samples were taken from the rats' orbital sinuses at 0 h, 0.03 h, 0.08 h, 0.25 h, 0.5 h, 1 h, 1.5 h, 2 h, 4 h, 6 h and 8 h after the injections. Blood samples were centrifuged, and the supernatant was collected and stored at −20° C. for further analysis. After blood collection, the content of relaxin in the blood samples was detected using the Human relaxin-2 Quantikine ELISA Kit (R&D). The T1/2 of the test drug was calculated by T1/2 formula and EXCEL.

[2] = tested on: ICR mice; experiment: In vivo biological activity: pubis width in estradiol-primed female ICR mice; conditions: s.c. 6 μg/100 μl/mouse, 40 hours later, ratio to solvent control group (=1)
Experimental: ICR mice (female, purchased from SINO-BRITSH SIPPR/BK LAB. ANIMAL LTD., CO, Certificate No.: SCXK (Shanghai) 2008-0016, 18-20 g) were used in this test, and the maintenance environment was SPF grade. After their purchase, ICR mice were kept in the laboratory environment for two weeks in the following conditions: illumination: 12/12-hour light/dark cycle regulation, temperature: 20-25° C.; humidity: 40-60%. The wild-type human relaxin analog 800828 (WT, prepared in Example 29) with the original sequence was used as a positive control in this test.
One week before the experiment, each female ICR mouse was subcutaneously injected with 5 μg/100 μ1/animal of β-estradiol (water-insoluble, slightly soluble in oil), which was mixed with olive oil. Six days later, ICR mice with a body weight less than 22 g were excluded, and the rest of the animals were equally divided into groups according to body weight. The animals were subcutaneously injected with relaxin 800828 (WT) ([…]/100 μl/mouse), 800814 (6 μg/100 μl/mouse) or 0.1% benzopurpurine 4B saline (solvent control group). Relaxin 800828 (WT) and 800814 were dissolved in physiological saline containing 0.1% benzopurpurin 4B. 40 hours later, the pubic bones were removed, skin and muscle were removed from the bone, and the pubis width was measured under microscope. […]

[3] = tested on: THP-1 cells; experiment: In vitro bioactivity assay: cAMP production induced in THP-1 cells (cAMP ELISA); format: cell-based; conditions: 30 min incubation, forskolin + IBMX, average of three experiments, listed as 800828 (WT)
Experimental: The disclosed human relaxin analog (800814) binds to the receptor on THP-1 cells, and induces the production of cAMP in THP-1 cells. To determine the in vitro activity of human relaxin analog (800814), the generation of cAMP was detected. The wild-type human relaxin analog 800828 (WT) (prepared in Example 29) with the original sequence was used in this test as a positive control.
The cells used in the experiments, i.e., THP-1 (ATCC, Product Number: TIB-202™), were cultured in suspension at 37° C., 5% CO2, and used for experiments or passage when the cells were preferably in the logarithmic growth phase. THP-1 cells can be passaged every 2-3 days, with a dilution ratio of 1:3 to 1:4. The medium was RPMI1640, with 0.05 mM b-mercaptoethanol and 10% FBS. On the day of the experiment, THP-1 cells in logarithmic growth phase were collected by centrifugation, and resuspended in DMEM/F12. The cell density was adjusted to 2×10^6 cells/ml, and the cells were seeded in a 96-well plate (50 μl each well) and incubated in a 37° C. incubator for 30 minutes. […] The content of cAMP was detected with a CAMP ELISA KIT (CELL BIOLABS).
Data obtained in the above experiment was fit to a nonlinear curve using Graphpad Prism, and the EC50 value (ng/ml) of CAMP induced in the THP-1 cells by human relaxin analog (800814) was determined.

## CC[C@H](C)[C@@H]1NC(=O)[C@H](C)NC(=O)[C@H]([C@@H](C)CC)NC(=O)[C@H](CCC(N)=O)NC(=O)[C@H](C)NC(=O)[C@H](CCCNC(=N)N)NC(=O)[C@H](C(C)C)NC(=O)[C@H](CC(C)C)NC(=O)[C@H](CC(=O)O)NC(=O)[C@H](CCCNC(=N)N)NC(=O)CNC(=O)[C@@H](NC(=O)[C@H](CC(C)C)NC(=O)[C@H](CCCCN)NC(=O)[C@@H](NC(=O)[C@@H](NC(=O)[C@H](CCC(=O)O)NC(=O)[C@H](CCC(=O)O)NC(=O)[C@H](CCSC)NC(=O)[C@H](Cc2c[nH]c3ccccc23)NC(=O)[C@H](CO)NC(=O)[C@@H](N)CC(=O)O)C(C)C)[C@@H](C)CC)CSSC[C@@H]2NC(=O)[C@@H](NC(=O)[C@H](CCCCN)NC(=O)[C@H](CC(N)=O)NC(=O)[C@H](C)NC(=O)[C@H](CC(C)C)NC(=O)[C@H](C)NC(=O)[C@H](CO)NC(=O)[C@H](Cc3ccc(O)cc3)NC(=O)[C@H](CC(C)C)NC(=O)[C@@H](N)CC(=O)O)CSSC[C@H](NC(=O)CNC(=O)[C@H](C(C)C)NC(=O)[C@H](Cc3c[nH]cn3)NC2=O)C(=O)N[C@@H]([C@@H](C)O)C(=O)N[C@@H](CCCCN)C(=O)N[C@@H](CCCNC(=N)N)C(=O)N[C@@H](CO)C(=O)N[C@@H](CC(C)C)C(=O)N[C@@H](C)C(=O)N[C@@H](CCCNC(=N)N)C(=O)N[C@@H](Cc2ccccc2)C(=O)N[C@H](C(=O)O)CSSC[C@@H](C(=O)NCC(=O)N[C@@H](CCSC)C(=O)N[C@@H](CO)C(=O)N[C@H](C(=O)N[C@@H](Cc2c[nH]c3ccccc23)C(=O)N[C@@H](CO)C(=O)O)[C@@H](C)O)NC1=O [relaxin 800814]
[1]
  T1/2: does not affect its half-life
[1]; both sexes, Sprague Dawley, supernatant of centrifuged blood, iv
  half-life: 52.8 min

## relaxin 800828: wild-type human relaxin with the original sequence, expressed in E. coli, refolded and digested; positive control; precursor SEQ ID NO: 23
[2]
  relative pubic width: 1.24
[1]
  T1/2: 52.2 min
[3]
  EC50 of cAMP induced in THP-1 cells: 3.05 ng/mL
